From US20250152746A1, “BASE EDITING OF ANGPTL3 AND METHODS OF USING SAME FOR TREATMENT OF DISEASE” (Verve Therapeutics, Inc., priority 2020, published 2025)
In the oligonucleotide strings, read from the 5' end, every base follows the letter of its sugar. An asterisk marks phosphorothioate; unmarked linkages are phosphodiester. Other units and linkages are bracketed, terminal groups are in braces. A string of capitals states the bases alone. m = 2'-O-methyl; r = 2'-OH (RNA)

How the values were obtained:
PCSK9 gene [1] = assay: PCSK9 gRNA/SpCas9 editing in primary human hepatocytes (Tables 2, 4); type: cell-based; details: SpCas9 mRNA MS002 1:1 by weight; for Human Primary Hepatocyte Editing % 100: 100 ng/RNA/mL; for Human Primary Hepatocyte Editing % 500: 500 ng/RNA/mL; for Human Primary Hepatocyte Editing % 2500: 2500 ng/RNA/mL
How it was run: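 Editing at the PCSK9 site quantified by NGS of PCR amplicons from genomic DNA. Input: SpCas9 mRNA with gRNA, 1:1 by weight, transfected into primary human hepatocytes at 2500, 500 or 100 ng RNA/mL (tracr-modified guides at 2500, 1250, 500, 250 ng/mL).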

PCSK9 gene [2] = assay: PCSK9 gRNA/SpCas9 editing in primary cynomolgus hepatocytes (Tables 2, 22); type: cell-based, cynomolgus monkey; details: SpCas9 mRNA MS002 1:1 by weight; for Cyno Primary Hepatocyte Editing % 100: 100 ng/RNA/mL; for Cyno Primary Hepatocyte Editing % 500: 500 ng/RNA/mL; for Cyno Primary Hepatocyte Editing % 2500: 2500 ng/RNA/mL

| Molecule | Human Primary Hepatocyte Editing % 100 (PCSK9 gene [1]) [%] | Human Primary Hepatocyte Editing % 500 (PCSK9 gene [1]) [%] | Human Primary Hepatocyte Editing % 2500 (PCSK9 gene [1]) [%] | Cyno Primary Hepatocyte Editing % 100 (PCSK9 gene [2]) [%] | Cyno Primary Hepatocyte Editing % 500 (PCSK9 gene [2]) [%] | Cyno Primary Hepatocyte Editing % 2500 (PCSK9 gene [2]) [%] |
| --- | --- | --- | --- | --- | --- | --- |
| GA178: PCSK9 gRNA; protospacer CTCCTTCAGCACCACCACGT (SEQ ID NO: 172) (nucleic acid) guide: mC*mU*mC*rCrUrUrCrArGrCrArCrCrArCrCrArCrGrUrGrUrUrUrUrArGrArGrCrUrArGrArArArUrArGrCrArArGrUrUrArArArArUrArArGrGrCrUrArGrUrCrCrGrUrUrArUrCrArArCrUrUrGrArArArArArGrUrGrGrCrArCrCrGrArGrUrCrGrGrUrGrCrU*mU*mU*mU | 1.26 | 5.43 | 18.29 | 2.21 | 5.78 | 25.22 |
| GA172: PCSK9 gRNA; protospacer CAGTGCGCTCTGACTGCGAG (SEQ ID NO: 166) (nucleic acid, sugars from the 5' end m3 r94 m3, linkages s3 o93 s3 (s phosphorothioate, o phosphodiester), T or U not given here) guide: CAGUGCGCUCUGACUGCGAGGUUUUAGAGCUAGAAAUAGCAAGUUAAAAUAAGGCUAGUCCGUUAUCAACUUGAAAAAGUGGCACCGAGUCGGUGCUUUU | 0.32 | 3.52 | 14.01 | 0.51 | 2.11 | 15.58 |
| GA171: PCSK9 gRNA; protospacer TCTTGGTGAGGTATCCCCGG (SEQ ID NO: 165) (nucleic acid, 2'-O-methyl at 1, 2, other sugars, backbone and T or U not given here; further chemistry not fully specified) guide: UCTTGGTGAGGTATCCCCGGGTTTTAGAGCTAGAAATAGCAAGTTAAAATAAGGCTAGTCCGTTATCAACTTGAAAAAGTGGCACCGAGTCGGTGCTTTT | 2.37 | 9.38 | 31.75 | 1.29 | 9.06 | 27.79 |
| GA170: PCSK9 gRNA; protospacer CCAGGACCGCCTGGAGCTGA (SEQ ID NO: 164) (nucleic acid, sugars from the 5' end m3 r94 m3, linkages s3 o93 s3 (s phosphorothioate, o phosphodiester), T or U not given here) guide: CCAGGACCGCCUGGAGCUGAGUUUUAGAGCUAGAAAUAGCAAGUUAAAAUAAGGCUAGUCCGUUAUCAACUUGAAAAAGUGGCACCGAGUCGGUGCUUUU | 2.9 | 15.84 | 31.35 | 4.03 | 11.48 | 23.17 |
| GA169: PCSK9 gRNA; protospacer CGTGCGCAGGAGGACGAGGA (SEQ ID NO: 163) (nucleic acid, sugars from the 5' end m3 r94 m3, linkages s3 o93 s3 (s phosphorothioate, o phosphodiester), T or U not given here) guide: CGUGCGCAGGAGGACGAGGAGUUUUAGAGCUAGAAAUAGCAAGUUAAAAUAAGGCUAGUCCGUUAUCAACUUGAAAAAGUGGCACCGAGUCGGUGCUUUU | 5.49 | 15.15 | 46.65 | 3.45 | 18.28 | 42.38 |
| GA175: PCSK9 gRNA; protospacer GAAGATGAGTGGCGACCTGC (SEQ ID NO: 169) (nucleic acid, sugars from the 5' end m3 r94 m3, linkages s3 o93 s3 (s phosphorothioate, o phosphodiester), T or U not given here) guide: GAAGAUGAGUGGCGACCUGCGUUUUAGAGCUAGAAAUAGCAAGUUAAAAUAAGGCUAGUCCGUUAUCAACUUGAAAAAGUGGCACCGAGUCGGUGCUUUU | 1.55 | 7.53 | 24.81 | 1.45 | 12.37 | 44.77 |
| GA176: PCSK9 gRNA; protospacer AGCACCACCACGTAGGTGCC (SEQ ID NO: 170) (nucleic acid, sugars from the 5' end m3 r94 m3, linkages s3 o93 s3 (s phosphorothioate, o phosphodiester), T or U not given here) guide: AGCACCACCACGUAGGUGCCGUUUUAGAGCUAGAAAUAGCAAGUUAAAAUAAGGCUAGUCCGUUAUCAACUUGAAAAAGUGGCACCGAGUCGGUGCUUUU | 0.36 | 1.26 | 4.98 | 2.11 | 8.11 | 22.65 |
| GA177: PCSK9 gRNA; protospacer GGTCGCCACTCATCTTCACC (SEQ ID NO: 171) (nucleic acid, sugars from the 5' end m3 r94 m3, linkages s3 o93 s3 (s phosphorothioate, o phosphodiester), T or U not given here) guide: GGUCGCCACUCAUCUUCACCGUUUUAGAGCUAGAAAUAGCAAGUUAAAAUAAGGCUAGUCCGUUAUCAACUUGAAAAAGUGGCACCGAGUCGGUGCUUUU | 0.65 | 2.67 | 12.57 | 0.38 | 4.68 | 15.91 |
| GA173: PCSK9 gRNA; protospacer CTTGGTGAGGTATCCCCGGC (SEQ ID NO: 167) (nucleic acid, sugars from the 5' end m3 r94 m3, linkages s3 o93 s3 (s phosphorothioate, o phosphodiester), T or U not given here) guide: CUUGGUGAGGUAUCCCCGGCGUUUUAGAGCUAGAAAUAGCAAGUUAAAAUAAGGCUAGUCCGUUAUCAACUUGAAAAAGUGGCACCGAGUCGGUGCUUUU | 0.69 | 3.94 | 23.38 | 2.06 | 8.70 | 35.03 |
| GA174: PCSK9 gRNA; protospacer GGATCTTGGTGAGGTATCCC (SEQ ID NO: 168) (nucleic acid, sugars from the 5' end m3 r94 m3, linkages s3 o93 s3 (s phosphorothioate, o phosphodiester), T or U not given here) guide: GGAUCUUGGUGAGGUAUCCCGUUUUAGAGCUAGAAAUAGCAAGUUAAAAUAAGGCUAGUCCGUUAUCAACUUGAAAAAGUGGCACCGAGUCGGUGCUUUU | 1.18 | 5.24 | 14.74 | 1.60 | 4.88 | 18.65 |
| GA168: PCSK9 gRNA; protospacer CTTGGCGCAGCGGTGGAAGG (SEQ ID NO: 162) (nucleic acid, sugars from the 5' end m3 r94 m3, linkages s3 o93 s3 (s phosphorothioate, o phosphodiester), T or U not given here) guide: CUUGGCGCAGCGGUGGAAGGGUUUUAGAGCUAGAAAUAGCAAGUUAAAAUAAGGCUAGUCCGUUAUCAACUUGAAAAAGUGGCACCGAGUCGGUGCUUUU |  | 25.77 | 54.99 | 4.75 | 15.90 | 41.49 |
| GA179: PCSK9 gRNA; protospacer GAGTGGCGACCTGCTGGAGC (SEQ ID NO: 173) (nucleic acid) guide: mG*mA*mG*rUrGrGrCrGrArCrCrUrGrCrUrGrGrArGrCrGrUrUrUrUrArGrArGrCrUrArGrArArArUrArGrCrArArGrUrUrArArArArUrArArGrGrCrUrArGrUrCrCrGrUrUrArUrCrArArCrUrUrGrArArArArArGrUrGrGrCrArCrCrGrArGrUrCrGrGrUrGrCrU*mU*mU*mU | 1.29 | 6 | 21.87 | 1.06 | 4.21 | 12.94 |
| GA180: PCSK9 gRNA; protospacer GCGCACTGCCCGCCGCCTGC (SEQ ID NO: 174) (nucleic acid) guide: mG*mC*mG*rCrArCrUrGrCrCrCrGrCrCrGrCrCrUrGrCrGrUrUrUrUrArGrArGrCrUrArGrArArArUrArGrCrArArGrUrUrArArArArUrArArGrGrCrUrArGrUrCrCrGrUrUrArUrCrArArCrUrUrGrArArArArArGrUrGrGrCrArCrCrGrArGrUrCrGrGrUrGrCrU*mU*mU*mU | 0.22 | 2.22 | 17.16 | 0.91 | 2.45 | 14.12 |
